Reference: publication PMC7088854 (Molecular and Cellular Biochemistry, 2009)

T1: Myc-DC-SIGNR (UniProt Q9H2X3 1-399)
T1 sequence (looked up): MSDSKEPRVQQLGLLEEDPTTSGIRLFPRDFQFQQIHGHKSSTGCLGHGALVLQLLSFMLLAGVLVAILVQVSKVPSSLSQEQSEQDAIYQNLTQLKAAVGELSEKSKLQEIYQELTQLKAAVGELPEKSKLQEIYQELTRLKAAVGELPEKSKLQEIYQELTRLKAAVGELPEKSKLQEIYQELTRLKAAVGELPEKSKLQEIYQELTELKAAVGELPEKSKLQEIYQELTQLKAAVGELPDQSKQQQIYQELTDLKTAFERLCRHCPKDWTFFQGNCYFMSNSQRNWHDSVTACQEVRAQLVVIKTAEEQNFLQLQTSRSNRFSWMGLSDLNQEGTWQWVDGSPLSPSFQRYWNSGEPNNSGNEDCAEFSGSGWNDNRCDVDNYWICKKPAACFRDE


Target: T1, Myc-DC-SIGNR
Experiment: co-IP

Row | co-precipitated amount relative to wild-type LSECtin (onefold) | Binder
1 | 1.2 fold of wild type | Flag-LSECtin D1 (deletion of the potential endocytic motif) (receptor, UniProt Q6UXB4 1-293, looked up) MDTTRGGSSEEVPGGPWGRWVHWSRRPLFLALAVLVTTVLWAVILSILLSKASTERAALLDGHDLLRTNASKQTAALGALKEEVGDCHSCCSGTQAQLQTTRAELGEAQAKLMEQESALRELRERVTQGLAEAGRGREDVRTELFRALEAVRLQNNSCEPCPTSWLSFEGSCYFFSVPKTTWAAAQDHCADASAHLVIVGGLDEQGFLTRNTRGRGYWLGLRAVRHLGKVQGYQWVDGVSLSFSHWNQGEPNDAWGRENCVMMLHTGLWNDAPCDSEKDGWICEKRHNC
2 | 0.8 fold of wild type | Flag-LSECtin M1 (N73A) (receptor, UniProt Q6UXB4 1-293, looked up) MDTTRYSKWGGSSEEVPGGPWGRWVHWSRRPLFLALAVLVTTVLWAVILSILLSKASTERAALLDGHDLLRTAASKQTAALGALKEEVGDCHSCCSGTQAQLQTTRAELGEAQAKLMEQESALRELRERVTQGLAEAGRGREDVRTELFRALEAVRLQNNSCEPCPTSWLSFEGSCYFFSVPKTTWAAAQDHCADASAHLVIVGGLDEQGFLTRNTRGRGYWLGLRAVRHLGKVQGYQWVDGVSLSFSHWNQGEPNDAWGRENCVMMLHTGLWNDAPCDSEKDGWICEKRHNC
3 | 1.5 fold of wild type | Flag-LSECtin M2 (N159A) (receptor, UniProt Q6UXB4 1-293, looked up) MDTTRYSKWGGSSEEVPGGPWGRWVHWSRRPLFLALAVLVTTVLWAVILSILLSKASTERAALLDGHDLLRTNASKQTAALGALKEEVGDCHSCCSGTQAQLQTTRAELGEAQAKLMEQESALRELRERVTQGLAEAGRGREDVRTELFRALEAVRLQANSCEPCPTSWLSFEGSCYFFSVPKTTWAAAQDHCADASAHLVIVGGLDEQGFLTRNTRGRGYWLGLRAVRHLGKVQGYQWVDGVSLSFSHWNQGEPNDAWGRENCVMMLHTGLWNDAPCDSEKDGWICEKRHNC
4 | 0.8 fold of wild type | Flag-LSECtin D3 (deficiency of the CRD/CTLD domain) (domain or fragment, UniProt Q6UXB4 1-162, looked up) MDTTRYSKWGGSSEEVPGGPWGRWVHWSRRPLFLALAVLVTTVLWAVILSILLSKASTERAALLDGHDLLRTNASKQTAALGALKEEVGDCHSCCSGTQAQLQTTRAELGEAQAKLMEQESALRELRERVTQGLAEAGRGREDVRTELFRALEAVRLQNNSC
